This experiment has as its target T1, hCCR8 (Homo sapiens, UniProt P51685).
T1 construct: expressed in transfected cells
The experiment in a line: Flow cytometry binding of VHH-Fc fusion antibodies to hCCR8 on stably transfected HEK293 cells. Particulars: Table 12; for EC50: VHH-2 CDR alanine mutants as human Fc fusions, HEK293 hCCR8; for % Bmax: normalized to wild type VHH-2-Fc. As to the method: VHH-Fc fusion antibodies were evaluated for their ability to bind to hCCR8 on stably transfected HEK293 cells by means of flow cytometry. Cells were incubated with different concentrations of the bivalent VHH-Fc fusions for 60 minutes at 4° C., followed by two washes with FACS buffer, followed by 30 minutes incubation at 4° C. with the Zenon R-Phycoerythrin Anti-human IgG (ThermoFisher Scientific, #Z-25455), and two additional washing steps. Data were plotted and fit using GraphPad Prism software. EC50 and Bmax values individual antibodies were calculated from the resulting dose-response curves. Bivalent VHH-Fc fusions (Seq ID NOs: 31, 33, and 87-103) of 19 different VHH domains (SEQ ID NOs: 27, 28, and 70-86) were tested for cell binding and results are shown in Table 7. […]
VHH-Fc fusion DNA constructs were then generated comprising encoding humanized VHH sequences (SEQ ID NOs: 106-111) fused in frame to the human IgG1 (SEQ ID NO: 34) directly to the short hinge sequence in the pFuse expression vector, and were expressed, purified and analyzed for binding to HEK293 cells expressing human CCR8 as in Example 5. Binding curves for VHH-Fc antibodies comprised of parental VHH-1 and the humanized VHH derivatives VHH-1.2-Fc and VHH-1.3-Fc are shown in FIG. 9A. Binding curves for VHH-Fc antibodies comprised of parental VHH-2 and the humanized VHH derivatives VHH-2-Fc, VHH-2.2-Fc and VHH-2.3-Fc, are shown in FIG. 9B. Cell binding EC50 values, normalized Bmax (relative to respective parental clone) data and humanizing mutations are shown in Table 10 below.
Approaches such as in vitro affinity maturation and rational mutagenesis can be performed to regain binding affinity and/or stability lost through humanization. In vitro affinity maturation generally involves building and amino acid substitution library where amino acid positions are varied across the CDRs and/or framework at a defined set of positions using sets of amino acids chosen to introduce new chemical diversity. The paratope residues within the CDR regions are of course key to antigen binding and care must be taken not to disrupt important structures while attempting to evolve improve antibody behavior. One approach to identify positions that are important to the maintenance of binding properties is to perform paratope mapping using single scanning alanine substitutions across antibody CDR regions. In this approach, residues that are critical to the maintenance of antibody binding to the antigen can be identified and at the same time permissive sites can be identified where it may be possible to make substitutions of other amino acids desirable for subsequent affinity maturation library construction. Site directed mutagenesis was used to make single alanine substitutions at each residue in the CDRs of VHH-1 (SEQ ID NO: 27) and VHH-2 (SEQ ID NO: 28). Changes in VHH-1 CDR amino acids to alanine are indicated in Table 11 (SEQ ID NOs: 112-137) and for VHH-2 CDRs (SEQ ID NO: 138-162) in Table 12. Mutation positions and residue changes to alanine with respect to the in the parental VHH sequences are referenced by their IMGT position. VHH domains containing the indicated modified CDR-1, CDR-2 or CDR-3 domains were used to construct Fc fusions by direct grafting to the short hinge of the human Fc domain (SEQ ID NO: 34). VHH-Fc constructs were expressed, purified and analyzed for binding to HEK293 cells expressing hCCR8 and the results are reported in Table 11 and Table 12. EC50 values are reported for each Fc fusion antibody containing a modified CDR, along with its respective Bmax value normalized to the to the matched wild type VHH-1-Fc or VHH-2-Fc fusion antibody.
On the technique in general: In flow cytometry, cells or beads pass a laser one at a time.

Where no end group is shown, it is not given here.

T1 sequence (P51685 whole entry): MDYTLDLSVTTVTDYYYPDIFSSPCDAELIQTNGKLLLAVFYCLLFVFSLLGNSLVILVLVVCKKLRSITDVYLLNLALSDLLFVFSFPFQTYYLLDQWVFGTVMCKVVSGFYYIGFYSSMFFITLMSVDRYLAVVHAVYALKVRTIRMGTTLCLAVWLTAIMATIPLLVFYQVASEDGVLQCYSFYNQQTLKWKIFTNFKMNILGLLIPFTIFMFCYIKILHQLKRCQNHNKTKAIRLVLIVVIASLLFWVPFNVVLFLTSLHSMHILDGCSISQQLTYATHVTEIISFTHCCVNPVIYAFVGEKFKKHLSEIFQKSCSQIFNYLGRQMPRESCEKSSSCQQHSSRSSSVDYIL

The EC50 is the concentration giving half of the maximal effect. A low value points to an effect from little substance. For “VHH-2 S28A: VHH-2 alanine mutant, CDR1 GATSTINR, fused to human IgG1 Fc (also: CDR1 of VHH-2 in VHH fused to human IgG1 Fc)”, a half-maximal effect (EC50) was put at 1.61 nM and the “% Bmax” value stood at 68%.

As for “VHH-2 S30A: VHH-2 alanine mutant, CDR1 GSTATINR, fused to human IgG1 Fc (also: CDR1 of VHH-2 in VHH fused to human IgG1 Fc)”, the EC50 is 1.62 nM and the “% Bmax” value is on record as 66%.

For the substance “VHH-2 S57A: VHH-2 alanine mutant, CDR2 TASRTSP, fused to human IgG1 Fc (also: CDR2 of VHH-2 in VHH fused to human IgG1 Fc)”, the response was half-maximal at 1.03 nM (EC50) and the “% Bmax” value amounted to 69%.

Turning to “VHH-2 S58A: VHH-2 alanine mutant, CDR2 TSARTSP, fused to human IgG1 Fc (also: CDR2 of VHH-2 in VHH fused to human IgG1 Fc)”, the EC50 came out at 1.02 nM and the “% Bmax” value was 65%.

For the substance “VHH-2 S63A: VHH-2 alanine mutant, CDR2 TSSRTAP, fused to human IgG1 Fc (also: CDR2 of VHH-2 in VHH fused to human IgG1 Fc)”, the EC50 was found to be 1.08 nM and the “% Bmax” value worked out at 70%.

As to “VHH-2 S113A: VHH-2 alanine mutant, CDR3 QARMAMGSAQVVY, fused to human IgG1 Fc (also: CDR3 of VHH-2 in VHH fused to human IgG1 Fc)”, the EC50 is 0.9 nM and the “% Bmax” value turned out to be 48%.

With “VHH-2 T29A: VHH-2 alanine mutant, CDR1 GSASTINR, fused to human IgG1 Fc (also: CDR1 of VHH-2 in VHH fused to human IgG1 Fc)”, the concentration for a half-maximal effect (EC50) was 1.43 nM and the “% Bmax” value is 65%.

“VHH-2 T35A: VHH-2 alanine mutant, CDR1 GSTSAINR, fused to human IgG1 Fc (also: CDR1 of VHH-2 in VHH fused to human IgG1 Fc)”: it took 0.87 nM to reach a half-maximal effect (EC50) and the “% Bmax” value is 65%.

For the substance “VHH-2 T59A: VHH-2 alanine mutant, CDR2 TSSRASP, fused to human IgG1 Fc”, the concentration giving a half-maximal response (EC50) came to 1.48 nM and the “% Bmax” value came out at 74%.

“VHH-2 V115A: VHH-2 alanine mutant, CDR3 QARMAMGSSQAVY, fused to human IgG1 Fc (also: CDR3 of VHH-2 in VHH fused to human IgG1 Fc)”: a half-maximal effect (EC50) was put at 1.34 nM and the “% Bmax” value is 11%.

As to “VHH-2 V116A: VHH-2 alanine mutant, CDR3 QARMAMGSSQVAY, fused to human IgG1 Fc (also: CDR3 of VHH-2 in VHH fused to human IgG1 Fc)”, the response was half-maximal at 0.83 nM (EC50) and the “% Bmax” value is on record as 72%.

As to “VHH-2 Y117A: VHH-2 alanine mutant, CDR3 QARMAMGSSQVVA, fused to human IgG1 Fc (also: CDR3 of VHH-2 in VHH fused to human IgG1 Fc)”, the EC50 amounted to 0.86 nM and the “% Bmax” value is listed as 76%.

The record behind these values is patent publication US20250092146A1, “ANTI-CCR8 ANTIBODIES, CONJUGATES, AND USES THEREOF” (Abilita Bio, Inc., priority 2023, published 2025).
